Test results as given in PMC3233348 (2012).

T1: methylamine dehydrogenase (MADH) (Paracoccus denitrificans, UniProt P22619)
T1 chain 1: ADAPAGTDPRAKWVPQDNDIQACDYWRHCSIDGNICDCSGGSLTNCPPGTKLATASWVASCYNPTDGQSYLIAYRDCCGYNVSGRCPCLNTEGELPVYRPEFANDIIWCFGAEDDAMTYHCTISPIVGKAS
T1 chain 2: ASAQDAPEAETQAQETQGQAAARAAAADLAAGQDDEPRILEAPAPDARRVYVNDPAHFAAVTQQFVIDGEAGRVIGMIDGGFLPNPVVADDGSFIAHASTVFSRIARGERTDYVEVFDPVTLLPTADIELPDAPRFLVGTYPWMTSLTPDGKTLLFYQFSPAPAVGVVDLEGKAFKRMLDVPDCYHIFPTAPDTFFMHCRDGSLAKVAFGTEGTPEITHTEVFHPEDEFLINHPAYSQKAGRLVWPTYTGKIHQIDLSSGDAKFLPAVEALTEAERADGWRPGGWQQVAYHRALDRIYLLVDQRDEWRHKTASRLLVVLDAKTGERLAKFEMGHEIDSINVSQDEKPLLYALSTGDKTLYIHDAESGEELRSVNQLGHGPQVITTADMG


Experiments:
[1] = molecular target: methylamine dehydrogenase (MADH) (Paracoccus denitrificans) (UniProt P22619); conditions: cited from earlier work
[2] = molecular target: T1, methylamine dehydrogenase (MADH); experiment: steady-state kinetics competitive inhibition

amicyanin, sequence (P22364 27-131): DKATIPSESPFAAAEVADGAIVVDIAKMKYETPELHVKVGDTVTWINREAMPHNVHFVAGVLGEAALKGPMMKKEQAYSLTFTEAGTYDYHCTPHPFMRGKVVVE

Molecule	Kd [1]	Ki [2]
amicyanin (from UniProt P22364)	5 µM	
M98K amicyanin (protein) DKATIPSESPFAAAEVADGAIVVDIAKMKYETPELHVKVGDTVTWINREAMPHNVHFVAGVLGEAALKGPMKKKEQAYSLTFTEAGTYDYHCTPHPFMRGKVVVE		7.2 µM
